For orientation: Kd means the concentration at which binding is half-saturated.

The results in this text go back to patent US20200216522A1 (DENALI THERAPEUTICS, published 2020).

* marks the point of attachment. Biotin = O=C1N[C@H]2[C@H](CS[C@H]2CCCCC(=O)*)N1

The target in assay [1] is T1, full-length human Tau (Tau441; 2N4R), recombinant (human, UniProt P10636 1-758).
T1 construct: made in E. coli, His6-Smt3 tag removed; biotinylated through amines for Octet and phage work; also called r-Tau; recombinant Tau
T1 sequence (P10636 other isoform, or with tags, fused parts or gaps limits assumed): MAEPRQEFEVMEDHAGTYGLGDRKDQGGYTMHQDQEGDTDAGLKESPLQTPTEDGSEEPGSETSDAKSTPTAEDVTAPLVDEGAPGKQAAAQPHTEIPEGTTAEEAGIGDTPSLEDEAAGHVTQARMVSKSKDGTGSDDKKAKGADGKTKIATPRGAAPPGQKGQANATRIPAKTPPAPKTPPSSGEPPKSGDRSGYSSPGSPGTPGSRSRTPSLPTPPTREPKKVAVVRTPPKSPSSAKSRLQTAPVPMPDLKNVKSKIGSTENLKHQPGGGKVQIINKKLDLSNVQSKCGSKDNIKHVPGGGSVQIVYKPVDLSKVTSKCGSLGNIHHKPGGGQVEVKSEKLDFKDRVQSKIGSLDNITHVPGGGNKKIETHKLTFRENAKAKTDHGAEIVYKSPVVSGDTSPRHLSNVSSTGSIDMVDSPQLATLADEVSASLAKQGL
Briefly: SPR Biacore, IgG captured, r-Tau injected. The protocol: The affinity of chimeric IgG antibodies 1C7, 1A1, 1A5, 1D10, and 1G7 for recombinant Tau was determined by surface plasmon resonance using a Biacore™ T200 instrument. Biacore™ Series S CM5 sensor chips were immobilized with monoclonal mouse anti-human IgG (Fc) antibody (human antibody capture kit from GE Healthcare). 1 μg/mL of antibody was captured for 1 minute on each flow cell and serial 3-fold dilutions of recombinant Tau were injected at a flow rate of […]. Each sample was analyzed with a 3-minute association and a 10-minute dissociation. After each injection the chip was regenerated using 3M MgCl₂. Binding response was corrected by subtracting the RU from a flow cell capturing an irrelevant IgG at similar density. A 1:1 Languir model of simultaneous fitting of kₒₙ and koff was used for kinetics analysis.
Background: SPR reads the build-up and loss of mass on a sensor chip optically.

The target in assay [2] is T1, full-length human Tau (Tau441; 2N4R), …. In words: Octet binning on biotin-r-Tau; competitor 1A5. As to the method: (§1) Epitope binning assays were performed using a FortéBio® Octet® RED384 instrument using FortéBio® Streptavidin biosensors. Biotinylated recombinant Tau was diluted to a concentration of 2 μg/mL in kinetic buffer (obtained from FortéBio®) and captured onto individual biosensors for 1 minute. A baseline was then established for 1 minute in kinetic buffer. The loaded biosensors were dipped into 10 μg/mL of the first chimeric IgG antibody until signal saturation, followed by dipping into 1 μg/mL of a second antibody. The binding for the second antibody was normalized to its total binding in the absence of the first antibody.
In general terms: In BLI a coated tip is dipped into the sample, and binding shifts an interference pattern.

For assay [3], the target named is T2, Tau 251-270 peptide, unphosphorylated (human, N-terminal biotin; C-terminal amide).
T2 peptide: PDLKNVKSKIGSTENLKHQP
In words: ELISA on biotinylated peptide. As to the method: (§2) Peptides corresponding to original binding sites on the microarray were synthesized and included all permutations of phospho-serine epitopes. Peptides were synthesized with a biotinylated N-terminus and C-terminal amide. Peptides were purified and confirmed by mass spectrometry. Peptides were then bound to streptavidin-coated plates in half serial dilutions from 250 ng/well of each peptide. Antibody binding was tested at 1 μg/mL in 5% BSA TBST, followed by washing and detection with goat anti-human HRP (as described above in the “Chimeric IgG ELISA” section).
On the technique in general: An ELISA detects its analyte on a solid surface through an enzyme-linked reagent.

Assay [4] deals with T3, Tau 346-360 peptide, unphosphorylated (human, SMILES …).
T3 peptide: Biotin-FKDRVQSKIGSLDNI-NH2
In words: ELISA on biotinylated peptide. As to the method:
as §2

The target in assay [5] is T1, full-length human Tau (Tau441; 2N4R), …. In words: Octet binning on biotin-r-Tau; competitor 1C7. The protocol:
as §1

For assay [6], the target named is T4, Peptide_023 (human).
T4 peptide: TPSLEDEAAGHVTQA
Briefly: peptide array. As to the method:
(§3) Chimeric IgG antibodies were diluted to a concentration of 5 μg/mL in 3% bovine serum albumin in Tris-buffered saline (10 mM Tris, pH 7.5, 150 mM NaCl) supplemented with 0.05% Tween®20 (3% BSA-TBST). Diluted antibodies were allowed to bind to peptides printed onto slides for 2 hours at room temperature as described in the PepStar™ user manual (JPT Technologies). Following extensive washing (5×5 minutes with TBST), slides were incubated with secondary antibodies goat anti-human IgG, Alexa Fluor 568 conjugate, 1 μg/mL in 3% BSA-TBST) for 1 hour at room temperature. After extensive washing, (5×5 minutes with TBST, then 5×5 minutes with ultrapure water), slides were dried overnight and imaged using an Opera Phenix™ system in the 568 nm channel. Images were aligned to peptide array definition files using Galviewer software obtained from JPT Technologies and ImageJ software with control human IgG serving as landmarks.
(§4) Full-length human Tau (encoded by the microtubule-associated protein Tau isoform 2 gene (MAPT), amino acid sequence NCBI Reference Sequence No. NP_005901.2, SEQ ID NO: 1, variant designation “2N4R”) was divided into 15 amino acid peptides, offset by 5 amino acids (overlapping by 10 amino acids). Peptides were synthesized and covalently attached to silica slides in triplicate with a spot size of 0.5 mm (obtained from JPT Technologies, Berlin, Germany). Antibodies muIgG were diluted to a concentration of 30 μg/mL in 3% bovine serum albumin in Tris-buffered saline (10 mM Tris, pH 7.5, 150 mM NaCl) supplemented with 0.05% Tween® 20 (3% BSA-TBST). Diluted antibodies were allowed to bind to peptides printed onto slides for 2 hours at room temperature as described in the Pepstar™ user manual (JPT Technologies). Following extensive washing (5×5 min TBST), slides were incubated with secondary antibodies (donkey anti-mouse IgG, Alexafluor 647 conjugate, 5 μg/mL in 3% BSA-TBST) for 1 hour at room temperature. After extensive washing, (5×5 minutes TBST, 5×5 minutes ultrapure water), slides were dried under a stream of nitrogen and imaged on the Opera Phenix in the 647 nm channel. Images were aligned to peptide array definition file using Galviewer software obtained from JPT Technologies and ImageJ software with control mouse IgG serving as landmarks.

The target of assay [7] is T5, Peptide_024 (human).
T5 peptide: DEAAGHVTQARMVSK
Briefly: peptide array. As to the method: as §3, §4

The target of assay [8] is T6, Peptide_069 (human).
T6 peptide: SEKLDFKDRVQSKIG
Briefly: peptide array. As to the method: as §3, §4

The target in assay [9] is T7, Peptide_078 (human).
T7 peptide: TDHGAEIVYKSPVVS
Briefly: peptide array. The protocol: as §3, §4

Assay [10] has as its target T8, Peptide_031 (human).
T8 peptide: IATPRGAAPPGQKGQ
Briefly: peptide array. The protocol: as §3, §4

The target in assay [11] is T9, Peptide_027 (human).
T9 peptide: SKDGTGSDDKKAKGA
In words: peptide array. As to the method:
as §3, §4

Assay [12] has as its target T10, Peptide_083 (human).
T10 peptide: VSSTGSIDMVDSPQL
Briefly: peptide array. The protocol: as §3, §4

The target in assay [13] is T11, Peptide_073 (human).
T11 peptide: THVPGGGNKKIETHK
In words: peptide array. The protocol:
as §3, §4

Assay [14] concerns the target T12, Peptide_065 (human).
T12 peptide: KCGSLGNIHHKPGGG
In words: peptide array. As to the method:
as §3, §4

Assay [15] deals with T1, full-length human Tau (Tau441; 2N4R), …. In words: Octet binning on biotin-r-Tau; competitor 1G7. As to the method: as §1
For assay [16] the target is unchanged. In words: Octet binning on biotin-r-Tau; competitor 1D10. As to the method: as §1
The target is the same in assay [17]. Briefly: Octet binning on biotin-r-Tau; row antibody Ab107 (anti-BACE1 control). As to the method:
as §1

B1: chimeric IgG clone 1D10 (antibody, V domains shown)
VH: EVQLQQSGAELVRPGASVKLSCTASGFNIKDSLMHWMKQRPEQGLEWIGWIDPEDGETKYAPKFQDKATLTADTSSNAAYLQLSSLTSEDTAIYYCVRGDWDGGYWGQGTTLTVSS
VL: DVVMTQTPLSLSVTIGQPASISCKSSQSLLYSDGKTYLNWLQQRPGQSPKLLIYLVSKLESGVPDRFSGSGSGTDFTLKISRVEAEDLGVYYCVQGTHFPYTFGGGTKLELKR
notes: mouse-human chimeric IgG from HEK293
Turning to B1, the Kd in assay [1] stood at 0.2 nM. Further, the “normalized binding of second antibody” value in [2] was -0.07; in [5] it was 0.88; in assay [15], 0.12; in assay [16], -0.05; in [17], 1. For the same molecule, the binding result is listed as “binds” in assay [3]; “binds” in [4]; “no binding (tested: 5 ug/mL)” in assay [6]; “no binding (tested: 5 ug/mL)” in assay [7]; “no binding (tested: 5 ug/mL)” in assay [8]; “no binding (tested: 5 ug/mL)” in assay [9]. For the same molecule, the binding result in [10], in assay [11], in assay [12], in assay [13] and in assay [14] was “no binding (tested: 5 ug/mL)” throughout.

B2: chimeric IgG clone 1A1 (antibody, V domains shown)
VH: EVQLQQSGAELVRPGASVRLSCTASGFNIKDSLMHWLKQRPEQGLEWIGWIDPEDGETKYAPKFQDKATITADTSSNTAYLQLSSLTSEDTAIYYCTRRDWEGPWGQGTLVTVSA
VL: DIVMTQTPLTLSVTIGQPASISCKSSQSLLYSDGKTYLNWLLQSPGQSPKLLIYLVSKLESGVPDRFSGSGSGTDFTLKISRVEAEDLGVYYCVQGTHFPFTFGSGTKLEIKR
notes: mouse-human chimeric IgG from HEK293; also called anti-Tau 1A1; anti-Tau^1A1
For the molecule B2, in [1], the Kd worked out at 0.02 nM. The binding result is reported as “binds” in assay [3]; “binds” in assay [4]; “no binding (tested: 5 ug/mL)” in assay [6]; “no binding (tested: 5 ug/mL)” in assay [7]; “no binding (tested: 5 ug/mL)” in [8]; “no binding (tested: 5 ug/mL)” in assay [9]. Moreover, the binding result in assay [10], in assay [11], in assay [12], in assay [13] and in [14] was “no binding (tested: 5 ug/mL)” each time.

B3: chimeric IgG clone 1G7 (antibody, V domains shown)
VH: EVQLQQSGAEVVRPGASVKLSCTTSGFNIKDSLMHWLKQRPEQGLEWIGWIDPEDGETKYAPKFQDKATITADTSSNTAYLQLSSLTSGDTAIYYCARRDWEGPWGQGTLVTVSA
VL: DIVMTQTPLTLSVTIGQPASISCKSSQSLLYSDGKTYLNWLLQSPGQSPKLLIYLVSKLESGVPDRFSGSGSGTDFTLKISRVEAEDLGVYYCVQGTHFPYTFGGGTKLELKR
notes: as for B1
B3: in assay [1], the Kd came to 0.1 nM. For the same molecule, the “normalized binding of second antibody” value was -0.04 in [2]; 0.85 in assay [5]; -0.03 in assay [15]; -0.12 in [16]; 1 in [17]. The binding result in assay [3] is recorded as “binds”; in assay [4], “binds”; in assay [6], “no binding (tested: 5 ug/mL)”; in assay [7] it was “no binding (tested: 5 ug/mL)”; in [8], “no binding (tested: 5 ug/mL)”; in assay [9] it was “no binding (tested: 5 ug/mL)”. Also, the binding result in assay [10], in [11], in assay [12], in assay [13] and in assay [14] was “no binding (tested: 5 ug/mL)” in each case.

B4: murine anti-Tau hybridoma antibody 17G2.A1 (antibody, V domains shown)
VH: QVQLQQPGAELVGPGSSVKLSCKASGYTFINYWIDWMKQSPGQGLEWIGNIYPSDSESHYNQKFTDKATLTVDISSSTAYLQLSSLTSEDSAVYYCALYSKGYWGQGTSVTVSS
VL: DVLMTQTPLSLPVTLGDQASISCRSSQNIVHTNGNTYLEWYLQKPGQSPKLLIYKLSSRFSGVPDRFSGSGSGTDFTLKISRVEAEDLGVYYCFQGSHLPFTFGGGTKLEIKR
notes: mouse IgG from hybridoma; also called anti-Tau 17G2.A1
For the molecule B4, the binding result in assay [6], in [7], in [8], in assay [9], in assay [10] and in assay [11] was “no binding (tested: 30 ug/mL)” throughout. Moreover, the binding result in assay [12], in assay [13] and in assay [14] was “no binding (tested: 30 ug/mL)” each time.

B5: chimeric IgG clone 1A5 (antibody, V domains shown)
VH: EVQLQQSGAELVRPGASVKLSCTASGFNIKDSLIHWVKQRPEQGLEWIGWIDPEDGETKYAPKFQDKATKTADTSSNTAYLQLSSLTSEDTAIYYCASGEWDYWGQGTSVTVSS
VL: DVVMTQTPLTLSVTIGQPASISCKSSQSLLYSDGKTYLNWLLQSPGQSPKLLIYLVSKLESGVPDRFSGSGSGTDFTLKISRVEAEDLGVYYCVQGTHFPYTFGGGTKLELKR
notes: as for B1
For the molecule B5, in assay [1], the Kd is 0.2 nM. Besides, the “normalized binding of second antibody” value in assay [2] is -0.13; in assay [5], 0.7; in assay [15], -0.1; in assay [16], -0.35; in [17] it was 1. Also, the binding result in [3] was “binds”; in assay [4], “binds”; in [6] it was “no binding (tested: 5 ug/mL)”; in [7], “no binding (tested: 5 ug/mL)”; in assay [8], “no binding (tested: 5 ug/mL)”; in assay [9] it was “no binding (tested: 5 ug/mL)”. Further, the binding result in assay [10], in assay [11], in [12], in assay [13] and in assay [14] was “no binding (tested: 5 ug/mL)” throughout.
